Reference: US20240116985A1 (published 2024)
Starred links: 1 amine or outer side, 2 acyl side, 3 side chain; linkers in the order of their positions; H or OH if unused. Positions of bridges follow the written chain, without caps; N, C: chain ends. Non-standard residues stand in square brackets, D forms with d. Primed or numbered codes have the meaning given here. B5(4) = 2,2-bis(4-pentenyl)glycine = 2-amino-2-(pent-4-en-1-yl)hept-6-enoic acid (stitching residue), C=CCCCC(CCCC=C)(N[*:1])C(=O)[*:2]; B5(5) = 2,2-bis(4-pentenyl)glycine, 2-amino-2-(pent-4-en-1-yl)hept-6-enoic acid (stitching residue), C=CCCCC(CCCC=C)(N[*:1])C(=O)[*:2]; PyrS″ = (S)-1-((allyloxy)carbonyl)-3-aminopyrrolidine-3-carboxylic acid (stapling residue), C=CCOC(=O)N1CC[C@@](N[*:1])(C(=O)[*:2])C1; PyrS = (S)-1-((allyloxy)carbonyl)-3-aminopyrrolidine-3-carboxylic acid, C=CCOC(=O)N1CC[C@@](N[*:1])(C(=O)[*:2])C1; B5(3) = 2,2-bis(4-pentenyl)glycine (stitching residue), C=CCCCC(CCCC=C)(N[*:1])C(=O)[*:2]; B5 = 2-amino-2-(pent-4-en-1-yl)hept-6-enoic acid, C=CCCCC(CCCC=C)(N[*:1])C(=O)[*:2]; Phe(3-CF3) = N[C@@H](Cc1cccc(C(F)(F)F)c1)C(=O)O; Phe(4-CF3) = N[C@@H](Cc1ccc(C(F)(F)F)cc1)C(=O)O; Phe(F5) = N[C@@H](Cc1c(F)c(F)c(F)c(F)c1F)C(=O)O; Bip = N[C@@H](Cc1ccc(-c2ccccc2)cc1)C(=O)O; 2Nal = N[C@@H](Cc1ccc2ccccc2c1)C(=O)O; Bta = N[C@@H](Cc1csc2ccccc12)C(=O)O; αAllylPro = C=CC[C@@]1(C(=O)O)CCCN1; d(αMeL) = CC(C)C[C@@](C)(N)C(=O)O; 2Pal = N[C@@H](Cc1ccccn1)C(=O)O; 4Pal = N[C@@H](Cc1ccncc1)C(=O)O; R8 = C=CCCCCCC[C@@](C)(N)C(=O)O; S8 = C=CCCCCCC[C@](C)(N)C(=O)O

T1: full-length beta-Catenin (Uniprot ID P35222) (Homo sapiens (Human), UniProt P35222 2-781)
T1 construct: The AlphaScreen assay used a Histidine (Nickel Chelate) detection kit, so a His tag is likely, but no tag is described; also called B-Catenin; bCat
T1 sequence: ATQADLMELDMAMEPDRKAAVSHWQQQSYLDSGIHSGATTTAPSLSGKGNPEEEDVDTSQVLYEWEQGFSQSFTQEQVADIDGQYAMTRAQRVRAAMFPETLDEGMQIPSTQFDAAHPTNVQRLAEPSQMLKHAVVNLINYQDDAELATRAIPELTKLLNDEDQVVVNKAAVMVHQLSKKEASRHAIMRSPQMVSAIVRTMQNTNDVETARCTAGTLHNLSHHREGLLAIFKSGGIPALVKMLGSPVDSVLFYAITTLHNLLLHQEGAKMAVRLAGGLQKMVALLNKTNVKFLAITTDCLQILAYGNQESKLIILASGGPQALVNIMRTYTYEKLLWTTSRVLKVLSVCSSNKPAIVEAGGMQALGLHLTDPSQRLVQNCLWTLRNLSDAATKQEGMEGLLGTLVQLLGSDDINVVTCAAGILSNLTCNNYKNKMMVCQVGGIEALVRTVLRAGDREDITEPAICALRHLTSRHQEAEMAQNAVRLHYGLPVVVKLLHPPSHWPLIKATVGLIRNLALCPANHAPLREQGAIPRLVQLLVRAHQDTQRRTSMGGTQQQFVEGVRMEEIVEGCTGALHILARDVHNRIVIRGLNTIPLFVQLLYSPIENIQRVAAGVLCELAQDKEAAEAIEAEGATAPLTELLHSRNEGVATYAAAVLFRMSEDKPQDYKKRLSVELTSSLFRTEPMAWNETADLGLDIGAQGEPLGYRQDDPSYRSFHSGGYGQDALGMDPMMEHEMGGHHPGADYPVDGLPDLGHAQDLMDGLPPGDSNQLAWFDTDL


Target: T1, full-length beta-Catenin (Uniprot ID …)
Test: AlphaScreen competition: full-length beta-catenin + biotin-TCF4(10-53) probe, peptide titrated
Protocol: Equal volume of the titrated peptide was added to the plate and incubated for 15 minutes at 20° C. Then 4 uL of donor and 4 uL acceptor beads at 10 ug/mL were added to the plate, for a 16 uL reaction pool and protected from light for 60 minutes at 20° C. prior to read. Reads were performed on a CLARIOstar plate reader (BMG Labtech) in duplicate, and data were fitted to a 1:1 binding model with hill slope using an in-house script. All provided concentrations are final concentrations.

Binder | EC50
Ac-FDA[R8]DDAAFT[PyrS″]FWQ-NH2 (staple 4-11, Stapled peptide composition; also called Ac-Phe-Asp-Ala-R8-Asp-Asp-Ala-Ala-Phe-Thr-PyrS-Phe-Trp-Gln-NH2) [I-222] | 6.58 µM
Ac-FDA[R8]DDAAFT[PyrS″]FWQ-NH2 (staple 4-11, Stapled peptide composition; also called Ac-Phe-Asp-Ala-R8-Asp-Asp-Ala-Ala-Phe-Thr-PyrS-Phe-Trp-Gln-NH2) [I-223] | 4.12 µM
Ac-FDA[R8]DDAAFT[PyrS]FWQ-NH2 (staple 4-11, Stapled peptide composition; also called Ac-Phe-Asp-Ala-R8-Asp-Asp-Ala-Ala-Phe-Thr-PyrS-Phe-Trp-Gln-NH2) [I-224] | 4.12 µM
Ac-[αAllylPro]DA[B5(5)]DDAA[Phe(3-CF3)]V[S8]FWQ-NH2 (staple 1-4, 4-11; not fully specified; printed as Ac-PL3-Asp-Ala-B5-Asp-Asp-Ala-Ala-3F3MeF-Val-S8-Phe-Trp-Gln-NH2, Stapled peptide composition; also called Ac-PL3-Asp-Ala-B5-Asp-Asp-Ala-Ala-3F3MeF-Val-S8-Phe-Trp-Gln-NH2) [I-239] | 0.267 µM
Ac-[αAllylPro]DA[B5(3)]DDAA[Phe(3-CF3)]V[S8]FWQ-NH2 (staple 1-4, 4-11, Stapled peptide composition; also called Ac-PL3-Asp-Ala-B5-Asp-Asp-Ala-Ala-3F3MeF-Val-S8-Phe-Trp-Gln-NH2) [I-237] | 0.384 µM
Ac-[αAllylPro]DA[B5(5)]DDAA[Phe(4-CF3)]V[S8]FWQ-NH2 (staple 1-4, 4-11; not fully specified; printed as Ac-PL3-Asp-Ala-B5-Asp-Asp-Ala-Ala-4F3MeF-Val-S8-Phe-Trp-Gln-NH2, Stapled peptide composition; also called Ac-PL3-Asp-Ala-B5-Asp-Asp-Ala-Ala-4F3MeF-Val-S8-Phe-Trp-Gln-NH2) [I-240] | 3.47 µM
Ac-[αAllylPro]DA[B5(4)]D[2Nal]AAFV[S8]FWQ-NH2 (staple 1-4, 4-11, Stapled peptide composition; also called Ac-PL3-Asp-Ala-B5-Asp-2NapA-Ala-Ala-Phe-Val-S8-Phe-Trp-Gln-NH2) [I-232] | 7.64 µM
Ac-[αAllylPro]DA[B5(4)]D[d(αMeL)]AAFV[S8]FWQ-NH2 (staple 1-4, 4-11, Stapled peptide composition; also called Ac-PL3-Asp-Ala-B5-Asp-DaMeL-Ala-Ala-Phe-Val-S8-Phe-Trp-Gln-NH2) [I-216] | ≥ 10 µM
Ac-[αAllylPro]DA[B5]D[d(αMeL)]AAFV[S8]FWQ-NH2 (staple 1-4, 4-11, Stapled peptide composition; also called Ac-PL3-Asp-Ala-B5-Asp-DaMeL-Ala-Ala-Phe-Val-S8-Phe-Trp-Gln-NH2) [I-215] | ≥ 10 µM
Ac-[αAllylPro]DA[B5][4Pal]EAAFV[S8]FWQ-NH2 (staple 1-4, 4-11, Stapled (stitched) peptide composition; also called Ac-PL3-Asp-Ala-B5-4pyrA-Glu-Ala-Ala-Phe-Val-S8-Phe-Trp-Gln-NH2) [I-214] | 7.21 µM
Ac-FDA[R8]DDAAFT[PyrS]FWQ-NH2 (staple 4-11, Stapled peptide composition; also called Ac-Phe-Asp-Ala-R8-Asp-Asp-Ala-Ala-Phe-Thr-PyrS-Phe-Trp-Gln-NH2) [I-221] | 6.58 µM
Ac-FDA[R8]DDAAFV[PyrS″][Phe(F5)]WQ-NH2 (staple 4-11, Stapled peptide composition; also called Ac-Phe-Asp-Ala-R8-Asp-Asp-Ala-Ala-Phe-Val-PyrS-Pff-Trp-Gln-NH2) [I-227] | 5.91 µM
Ac-FDA[R8]DDAAFV[PyrS][Phe(F5)]WQ-NH2 (staple 4-11, Stapled peptide composition; also called Ac-Phe-Asp-Ala-R8-Asp-Asp-Ala-Ala-Phe-Val-PyrS-Pff-Trp-Gln-NH2) [I-228] | 5.91 µM
Ac-FDA[R8]DDAAFV[PyrS″][Phe(F5)]WQ-NH2 (staple 4-11, Stapled peptide composition; also called Ac-Phe-Asp-Ala-R8-Asp-Asp-Ala-Ala-Phe-Val-PyrS-Pff-Trp-Gln-NH2) [I-226] | 7.63 µM
Ac-FDA[R8]DDAAFV[PyrS][Phe(F5)]WQ-NH2 (staple 4-11, Stapled peptide composition; also called Ac-Phe-Asp-Ala-R8-Asp-Asp-Ala-Ala-Phe-Val-PyrS-Pff-Trp-Gln-NH2) [I-225] | 7.63 µM
Ac-[αAllylPro]DA[B5(3)]DDAA[Phe(3-CF3)]V[S8]FWQ-NH2 (staple 1-4, 4-11, Stapled peptide composition; also called Ac-PL3-Asp-Ala-B5-Asp-Asp-Ala-Ala-3F3MeF-Val-S8-Phe-Trp-Gln-NH2) [I-238] | 0.267 µM
Ac-[αAllylPro]DA[B5(4)][2Pal]EAAFV[S8]FWQ-NH2 (staple 1-4, 4-11; also: separate staple isomer composition, Stapled peptide composition; also called Ac-PL3-Asp-Ala-B5-2pyrA-Glu-Ala-Ala-Phe-Val-S8-Phe-Trp-Gln-NH2) [I-229] | 5.81 µM
Ac-[αAllylPro]DA[B5(3)]D[Bip]AAFV[S8]FWQ-NH2 (staple 1-4, 4-11, Stapled peptide composition; also called Ac-PL3-Asp-Ala-B5-Asp-Bip-Ala-Ala-Phe-Val-S8-Phe-Trp-Gln-NH2) [I-235] | 7.34 µM
Ac-[αAllylPro]DA[B5(4)]D[Bta]AAFV[S8]FWQ-NH2 (staple 1-4, 4-11, Stapled peptide composition; also called Ac-PL3-Asp-Ala-B5-Asp-BztA-Ala-Ala-Phe-Val-S8-Phe-Trp-Gln-NH2) [I-231] | 6.53 µM
